Assay results reported in US20240392013A1 (STELEXIS THERAPEUTICS, published 2024).

T1: recombinant human IL1RAP protein, extracellular domain His-tagged (Sino Biological, Cat #10121-H08H) (human, UniProt Q9NPH3 21-367)
T1 construct: extracellular domain; Bought protein; The Octet analyte is printed as huIL1RAP-His (Sino Biological, lot MB08MA1301) without a catalogue number; also called huIL1RAP-His; hIL1RAP; not shown: His tag
T1 sequence (looked up): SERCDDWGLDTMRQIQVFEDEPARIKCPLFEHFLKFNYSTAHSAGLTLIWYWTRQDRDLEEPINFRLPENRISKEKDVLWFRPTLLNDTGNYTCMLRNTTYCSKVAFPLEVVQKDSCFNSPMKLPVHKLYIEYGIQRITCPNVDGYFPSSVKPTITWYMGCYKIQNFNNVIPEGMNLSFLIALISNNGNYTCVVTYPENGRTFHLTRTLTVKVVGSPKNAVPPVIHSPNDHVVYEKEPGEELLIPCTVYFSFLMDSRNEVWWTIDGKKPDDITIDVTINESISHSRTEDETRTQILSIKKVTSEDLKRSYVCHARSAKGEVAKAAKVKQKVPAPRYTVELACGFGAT

T2: IL1RAP on HEK-Blue IL1β / HEK-Blue IL33 reporter cells (UniProt Q9NPH3 21-570, limits assumed)
T2 sequence (looked up): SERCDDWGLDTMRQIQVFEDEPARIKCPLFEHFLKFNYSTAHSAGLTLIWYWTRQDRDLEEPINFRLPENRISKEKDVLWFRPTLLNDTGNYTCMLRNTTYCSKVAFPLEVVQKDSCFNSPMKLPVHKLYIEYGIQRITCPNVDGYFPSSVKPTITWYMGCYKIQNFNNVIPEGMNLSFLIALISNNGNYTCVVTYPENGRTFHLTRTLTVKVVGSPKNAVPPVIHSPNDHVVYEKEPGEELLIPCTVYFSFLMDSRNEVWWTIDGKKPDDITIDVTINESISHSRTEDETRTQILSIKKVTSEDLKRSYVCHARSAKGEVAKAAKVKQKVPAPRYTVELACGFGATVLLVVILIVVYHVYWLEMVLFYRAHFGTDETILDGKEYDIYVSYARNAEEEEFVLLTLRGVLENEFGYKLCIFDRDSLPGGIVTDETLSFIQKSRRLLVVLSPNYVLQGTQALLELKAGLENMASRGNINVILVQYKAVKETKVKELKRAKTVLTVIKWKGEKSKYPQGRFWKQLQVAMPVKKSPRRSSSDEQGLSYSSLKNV

T3: cyIL1RAP-His (Lake Pharma) (cynomolgus monkey, UniProt A0A2K5X5J5 21-367)
T3 construct: Bought protein (Lake Pharma, lot 16205819371); also called cynomolgus IL1RAP; monkey IL1RAP; not shown: His tag
T3 sequence: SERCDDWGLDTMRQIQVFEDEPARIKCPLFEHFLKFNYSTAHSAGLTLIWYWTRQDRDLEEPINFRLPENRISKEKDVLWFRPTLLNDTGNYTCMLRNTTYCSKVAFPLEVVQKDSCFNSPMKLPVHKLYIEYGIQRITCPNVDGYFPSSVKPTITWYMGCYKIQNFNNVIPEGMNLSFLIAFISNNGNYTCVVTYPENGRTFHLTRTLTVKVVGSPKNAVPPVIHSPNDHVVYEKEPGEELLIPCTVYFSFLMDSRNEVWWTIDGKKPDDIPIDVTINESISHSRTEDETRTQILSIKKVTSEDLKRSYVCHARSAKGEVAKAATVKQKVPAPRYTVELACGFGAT


Experiments:
[1] = target: T1, recombinant human IL1RAP protein, …; test: Octet BLI; mAb captured on anti-mouse IgG Fc sensor; huIL1RAP-His analyte
Outline: (§1)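 Antibodies at 5 μg/ml were captured on anti-mouse IgG Fc biosensors; His-tagged human or cynomolgus IL1RAP extracellular domain served as analyte at 100, 50 and 25 nM in PBS kinetics buffer (0.1% BSA, 0.02% Tween-20). Association 120 s, dissociation 1200 s; KD (M) calculated from binding kinetics.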

[2] = target: T1, recombinant human IL1RAP protein, …; test: cell-free ELISA, human IL1RAP coated at 1 µg/ml
Procedure: Recombinant human or mouse IL1RAP proteins (Sino Biological, Beijing, China; Cat #10121-H08H and Sino Biological, Cat #52657-M08H respectively) were diluted in PBS, pH 7.4 at concentration of 1 μg/ml, coated on high-binding 384-well clear plates and incubated overnight at 4° C. Following, plates were washed 3× with 0.05% Tween-20 in PBS, pH 7.5 and then blocked with 1% BSA in PBS for 1 hour at room temperature. After 3× washes, wells were incubated with each antibody at the highest concentration of 100 nM followed by seven serial half log dilutions (in 1% BSA and 0.05% Tween-20 in PBS) for 1 hour at room temperature. Plates were then washed 3× and incubated with […] detection antibody (Medna, TX, USA; Cat #D8212, 0.5 μg/ml diluted in 0.02% Tween-20 in PBS). After 5× washes, Supersignal ELISA Pico substrate (Thermofisher, MA, USA; Cat #37069) was applied to wells and chemiluminescent signal was read on Sprectramax L for 200 ms/well. Similarly, detection with specific κ and λ antibodies was conducted to define light chain isotyping.

[3] = target: T2, IL1RAP on HEK-Blue IL1β / HEK-Blue IL33 …; test: cell-based or functional assay
[4] = target: T2, IL1RAP on HEK-Blue IL1β / HEK-Blue IL33 …; test: cell-based or functional assay; remark: listed apart in the source
[5] = target: T3, cyIL1RAP-His (Lake Pharma); test: Octet BLI; mAb captured on anti-mouse IgG Fc sensor; cyIL1RAP-His analyte
Outline: as §1

Row | Kd [1] | Response [1] | koff [1] | kon [1] | EC50 [2] | Max % Inhibition at 200 nM, HEK-BlueIL33 NFκB Reporter Assay [3] | IC50, HEK-BlueIL1β NFκB Reporter Assay [4] | Max % Inhibition at 200 nM, HEK-BlueIL1β NFκB Reporter Assay [4] | Kd [5] | Response [5] | koff [5] | kon [5] | IC50, HEK-BlueIL33 NFκB Reporter Assay [3] | Binder
1 | 934 pM | 0.303 | 0.000287 s⁻¹ | 308000 M⁻¹ s⁻¹ | 985 pM | 95% | 1.31e-09 M (implied; unit not printed) | 100% | 1290 pM | 0.328 | 0.000441 s⁻¹ | 342000 M⁻¹ s⁻¹ |  | STLX2012 (antibody, V domains shown, Purified from hybridoma of immunized Alivamab mice; intact IgG; captured on anti-mouse IgG Fc sensors in Octet; kappa light chain; also called 74804_12A21B) VH: QVQLLQSGAEVKKPGSSVKVSCKASGGTFSIYAIDWVRQAPGQGLEWMGGIIPIFGTANSAQKFQGRVTITADKSTSTAYMELSSLRSEDTAVYYCARNGATSDAFDMWGQGTMVTVSS VL: EIVLTQSPGTLSLSPGERATLSCRASLSVSSNYLAWFQQRPGQAPRLLIHGVSRRATGIPDRFSGSGSGTDFTLTISRLEPEDFAVYYCQQYGSSPLTFGGGTKVEIK
2 | 425 pM | 0.251 | 0.000149 s⁻¹ | 350000 M⁻¹ s⁻¹ | 1040 pM | 85% | 2.29e-09 M (implied; unit not printed) | 99% | 970 pM | 0.286 | 0.0004 s⁻¹ | 412000 M⁻¹ s⁻¹ | 9.62e-09 M (implied; unit not printed) | STLX2043 (antibody, V domains shown, Purified from hybridoma of immunized Alivamab mice; intact IgG; captured on anti-mouse IgG Fc sensors in Octet; kappa light chain; also called 74804_43F04A) VH: QVQLLQSGAEVKKPGSSVKVSCKASGGTFSIYAIDWVRQAPGQGLEWMGGIIPIFGTENSAQNFQGRITITADKSTNTAYMELSSLRSEDTAVYYCARNGATSDAFDIWGQGTMVTVFS VL: EIVLTQSPGTLSLSPGERATLSCRASLSVSSNYLAWFQQRPGQAPRLLIYGVSRRATGIPDRFSGSGSGTDFTLTISRLEPEDFAVYYCQQYGSSPLTFGGGTKVEIK
